The values that follow are results of earlier work, collected in publication PMC5529358.

Broadly, the Kd is a measure of binding affinity in units of concentration.

The target in series [1] is insulin receptor isoform A isoform A (Homo sapiens) (UniProt P06213).
Series [2] concerns the target insulin receptor isoform B isoform B (Homo sapiens) (UniProt P06213).

Sequence of insulin (P01308 90-110): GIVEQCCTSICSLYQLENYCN

In the case of IGF-1 (from UniProt P05019), the Kd in series [1] is 120 nM. insulin (from UniProt P01308): the Kd in series [2] was 1.4 nM.
